The text below walks through data of patent publication US20210079557A1, “Methods and Compositions for Protein and Peptide Sequencing” (Google LLC, published 2021).

No end group written: not given here.

The labels stand for the following.
T1: bradykinin peptide-oligo conjugate (synthetic, also: C-terminal Cys conjugated to 3' end of DNA oligo tail)
T1 chain: RPPGFSPFRC

T2: argipressin peptide-oligo conjugate (synthetic, UniProt P01185 P01185:20-28, ends and bridges not checked; also: oligonucleotide conjugate, site not given here)
T2 chain: CYFQNCPRG

B1: argipressin BCS aptamer 2 (ssDNA)
DNA: GAGAGTTAGTCAGCAGGGATAACGAATTCGTATAGGCGCAGCATTTGATTCTGCTGCGTGCATACCCCTGTGTGTTATCCCTACTTGGCGTTCTTACCACCA
modifications: 5'-phosphate
B2: argipressin BCS aptamer 3 (ssDNA)
DNA: GAGAGTCCACGTGCACAGATAACGAATTCGTATAGGCGCAGCATACATCGGACATACATCCTGCGTGCATCCACCTTTGCATACTTGGCGTTCTTACCACCA
modifications: 5'-phosphate
B3: argipressin BCS aptamer 1 (ssDNA)
DNA: GAGAGTAAAGCCGATAGGATAACGAATTCGTATAGGCGCAGGATGGACTTGATAACCTTCTGCTGCGTGCCTTGATGTGCTTACTTGGCGTTCTTACCACCA
modifications: 5'-phosphate

One series concerns the target T1, bradykinin peptide-oligo conjugate. Description: no off-target hits. The conditions noted are these: tags: C-terminal Cys conjugated to DNA oligo tail tethered to flow cell (Genscript).
Regarding B1, the binding result was “no binding”.

For B2, the binding result is recorded as “no binding”.

B3: the binding result is reported as “no binding”.

The target in a further series is T2, argipressin peptide-oligo conjugate. The experiment in a line: barcode ligation sequencing on flow cell, over 100 hits on argipressin foundations. Particulars: tags: C-terminal DNA oligo tail tethered to flow cell (Genscript).
With B1, the binding result was “binds”.

For the molecule B2, the binding result was “binds”.

As for B3, the binding result is “binds”.
